Laboratory results as given in patent US20130280807A1, “CELL CULTURE CHAMBER, METHOD FOR PRODUCING SAME, TISSUE MODEL USING CELL CULTURE CHAMBER, AND METHOD FOR PRODUCING SAME” (priority 2010, published 2013).

Test system: PC-12 cells
Assay: Neurite extension of PC-12 cells by the effect of NGF through membrane
Format: cell-based
Settings: 2 days
Description: The vitrigel chamber was hung and held in the container (FIGS. 5, (A) and (B)), and PC-12 cells suspended in a culture medium [Dulbecco's modified Eagle's culture medium (GIBCO BRL #11885-084) containing 10% inactivated fetal bovine serum (Sigma #F2442), 20 mM HEPES (GIBCO BRL #15630), 100 units/ml penicillin, and 100 μg/ml streptomycin] were seeded in 2.5×10^3 cells/cm^2 in the vitrigel chamber. A culture medium (1.2 ml), either containing NGF (upstate #01-125; 5 ng/ml) or by itself, was also injected into the container (FIG. 13).
The same experiment was conducted with the commercially available collagen membrane chamber (Koken; permeable collagen membrane #CM-24 for cell culture).

B1: NGF: NGF (upstate #01-125; 5 ng/ml) added to culture medium, acting on PC-12 cells (protein, UniProt P01139 122-241, looked up)
Beta-nerve growth factor: SSTHPVFHMGEFSVCDSVSVWVGDKTTATDIKGKEVTVLAEVNINNSVFRQYFFETKCRASNPVESGCRGIDSKHWNSYCTTTHTFVKALTTDEKQAAWRFIRIDTACVCVLSRKATRRG
modifications: Beta-nerve growth factor
notes: NGF (upstate #01-125; 5 ng/ml) added to culture medium, acting on PC-12 cells
neurite extension of PC-12 cells (cell morphology, phase-contrast microscope) (commercially available collagen membrane chamber (Koken #CM-24), NGF in container): neurite extension was not confirmed | neurite extension of PC-12 cells (cell morphology, phase-contrast microscope) (vitrigel chamber, NGF 5 ng/ml in culture medium in container, acting through vitrigel membrane): neurite extension was confirmed
